Laboratory results reported in publication PMC10397247.

How the values were obtained:
Assay in all cases: two-hybrid library CCmax;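 note: natural log of median RNA to DNA barcode read ratio; higher means stronger binding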
[1] = molecular target: T1, 4H1877-AA; conditions: mean of both orientations
T1 chain: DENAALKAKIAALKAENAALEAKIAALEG

[2] = molecular target: T2, 4H891-AA; conditions: mean of both orientations
T2 chain: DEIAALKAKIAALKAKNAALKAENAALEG

[3] = molecular target: T3, 4H1842-AA; conditions: mean of both orientations
T3 chain: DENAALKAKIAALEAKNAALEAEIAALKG

[4] = molecular target: T4, 4H3865-AA; conditions: mean of both orientations
T4 chain: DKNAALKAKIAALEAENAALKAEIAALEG

[5] = molecular target: T5, 4H3590-AA; conditions: mean of both orientations
T5 chain: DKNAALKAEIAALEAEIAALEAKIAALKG

[6] = molecular target: T6, 4H850-AA; conditions: mean of both orientations
T6 chain: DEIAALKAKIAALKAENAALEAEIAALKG

[7] = molecular target: T7, 4H2274-AA; conditions: mean of both orientations
T7 chain: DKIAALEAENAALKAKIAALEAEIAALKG

[8] = molecular target: T8, 4H171-AA; conditions: mean of both orientations
T8 chain: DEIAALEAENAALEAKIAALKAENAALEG

[9] = molecular target: T9, 4H3753-AA; conditions: mean of both orientations
T9 chain: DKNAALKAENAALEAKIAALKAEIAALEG

[10] = molecular target: T10, 4H2330-AA; conditions: mean of both orientations
T10 chain: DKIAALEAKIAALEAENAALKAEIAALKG

[11] = molecular target: T11, 4H3165-AA; conditions: mean of both orientations
T11 chain: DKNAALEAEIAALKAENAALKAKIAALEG

[12] = molecular target: T12, 4H629-AA; conditions: mean of both orientations
T12 chain: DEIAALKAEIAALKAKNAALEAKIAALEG

[13] = molecular target: T13, 4H3009-AA; conditions: mean of both orientations
T13 chain: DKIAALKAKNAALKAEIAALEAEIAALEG

[14] = molecular target: T14, 4H485-AA; conditions: mean of both orientations
T14 chain: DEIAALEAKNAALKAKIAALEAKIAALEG

[15] = molecular target: T15, 4H2389-AA; conditions: mean of both orientations
T15 chain: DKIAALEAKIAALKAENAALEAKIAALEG

[16] = molecular target: T16, 4H930-AA
T16 chain: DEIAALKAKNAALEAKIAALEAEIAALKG

[17] = molecular target: T17, 4H570-AA; conditions: mean of both orientations
T17 chain: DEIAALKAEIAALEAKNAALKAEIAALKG

[18] = molecular target: T18, 4H797-AA; conditions: mean of both orientations
T18 chain: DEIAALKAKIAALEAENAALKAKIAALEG

[19] = molecular target: T19, 4H2865-AA; conditions: mean of both orientations
T19 chain: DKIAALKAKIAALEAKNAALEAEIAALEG

[20] = molecular target: T20, 4H2162-AA; conditions: mean of both orientations
T20 chain: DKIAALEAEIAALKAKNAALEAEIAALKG

[21] = molecular target: T21, 4H2649-AA; conditions: mean of both orientations
T21 chain: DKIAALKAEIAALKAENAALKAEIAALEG

[22] = molecular target: T22, 4H3697-AA; conditions: mean of both orientations
T22 chain: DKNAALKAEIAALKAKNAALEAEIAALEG

[23] = molecular target: T23, 4H3395-AA; conditions: mean of both orientations
T23 chain: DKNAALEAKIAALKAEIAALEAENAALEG

[24] = molecular target: T24, 4H2253-AA; conditions: mean of both orientations
T24 chain: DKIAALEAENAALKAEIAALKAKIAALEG

[25] = molecular target: T25, 4H745-AA; conditions: mean of both orientations
T25 chain: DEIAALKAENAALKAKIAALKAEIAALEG

[26] = molecular target: T26, 4H710-AA; conditions: mean of both orientations
T26 chain: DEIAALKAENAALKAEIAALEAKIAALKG

[27] = molecular target: T27, 4H2473-AA; conditions: mean of both orientations
T27 chain: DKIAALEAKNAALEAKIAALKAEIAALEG

[28] = molecular target: T28, 4H94-AA; conditions: mean of both orientations
T28 chain: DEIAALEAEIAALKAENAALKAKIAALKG

[29] = molecular target: T29, 4H2698-AA; conditions: mean of both orientations
T29 chain: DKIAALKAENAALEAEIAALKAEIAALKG

[30] = molecular target: T30, 4H3410-AA; conditions: mean of both orientations
T30 chain: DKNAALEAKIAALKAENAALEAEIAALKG

[31] = molecular target: T31, 4H2725-AA; conditions: mean of both orientations
T31 chain: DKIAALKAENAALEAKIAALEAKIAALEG

[32] = molecular target: T32, 4H3120-AA; conditions: mean of both orientations
T32 chain: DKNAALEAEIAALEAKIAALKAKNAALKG

[33] = molecular target: T33, 4H1597-AA
T33 chain: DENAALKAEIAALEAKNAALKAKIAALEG

[34] = molecular target: T34, 4H1864-AA; conditions: mean of both orientations
T34 chain: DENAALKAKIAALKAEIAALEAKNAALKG

[35] = molecular target: T35, 4H310-AA; conditions: mean of both orientations
T35 chain: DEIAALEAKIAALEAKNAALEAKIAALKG

[36] = molecular target: T36, 4H536-AA; conditions: mean of both orientations
T36 chain: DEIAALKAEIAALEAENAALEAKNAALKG

[37] = molecular target: T37, 4H3016-AA; conditions: mean of both orientations
T37 chain: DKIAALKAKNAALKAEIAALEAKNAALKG

[38] = molecular target: T38, 4H909-AA; conditions: mean of both orientations
T38 chain: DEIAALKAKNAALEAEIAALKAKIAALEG

[39] = molecular target: T39, 4H2109-AA; conditions: mean of both orientations
T39 chain: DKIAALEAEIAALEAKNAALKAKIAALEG

[40] = molecular target: T40, 4H458-AA; conditions: mean of both orientations
T40 chain: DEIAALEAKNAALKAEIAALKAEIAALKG

[41] = molecular target: T41, 4H3381-AA
T41 chain: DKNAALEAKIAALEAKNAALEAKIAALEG

[42] = molecular target: T42, 4H2438-AA; conditions: mean of both orientations
T42 chain: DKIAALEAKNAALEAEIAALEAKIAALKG

[43] = molecular target: T43, 4H1626-AA; conditions: mean of both orientations
T43 chain: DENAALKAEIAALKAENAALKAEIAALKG

[44] = molecular target: T44, 4H3130-AA; conditions: mean of both orientations
T44 chain: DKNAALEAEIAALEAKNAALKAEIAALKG

[45] = molecular target: T45, 4H174-AA; conditions: mean of both orientations
T45 chain: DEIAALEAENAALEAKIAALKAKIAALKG

DENAALKAEIAALEAKNAALKAKIAALEG [4H1597-AA]
interaction score [1]: 2.43 | interaction score [2]: -1.56 | interaction score [3]: -0.303 | interaction score [4]: 0.833 | interaction score [5]: 0.533 | interaction score [6]: 1.96 | interaction score [7]: -1.74 | interaction score [8]: -0.742 | interaction score [9]: -0.89 | interaction score [10]: -1.59 | interaction score [11]: -0.486 | interaction score [12]: 0.0113 | interaction score [13]: -1.02 | interaction score [14]: -1.53 | interaction score [15]: 2.15 | interaction score [16]: -1.69 | interaction score [17]: -1.39 | interaction score [18]: 0.0984 | interaction score [19]: 0.229 | interaction score [20]: -1.31 | interaction score [21]: -0.826 | interaction score [22]: 0.353 | interaction score [23]: -1.14 | interaction score [24]: -1.29 | interaction score [25]: -1.15 | interaction score [26]: -1.99 | interaction score [27]: -1.3 | interaction score [28]: -0.751 | interaction score [29]: -0.556 | interaction score [30]: 2 | interaction score [31]: 0.827 | interaction score [32]: -1.49 | interaction score [33]: 0.478 | interaction score [34]: 0.43 | interaction score [35]: -0.161 | interaction score [36]: -0.234 | interaction score [37]: -1.4 | interaction score [38]: -1.1 | interaction score [39]: -1.06 | interaction score [40]: -1.71 | interaction score [41]: -0.659 | interaction score [42]: -0.641 | interaction score [43]: -1.36 | interaction score [44]: -1.55 | interaction score [45]: -0.236
